By Kd is commonly meant the constant that tells how readily two partners part at equilibrium. The low end stands for tighter binding, the high end for weaker binding. The IC50 is the concentration needed to halve the response being measured. Read a high IC50 as a need for much substance.

Assay [1] has as its target T1, 重组人ST2-his (人ST2胞外区, C端His标签) (human (homo sapiens), UniProt Q01638 19-328).
T1 construct: Expressed in HEK293 cells; also called hST2-his; hST2-His; not shown: His tag at C-terminus
T1 sequence: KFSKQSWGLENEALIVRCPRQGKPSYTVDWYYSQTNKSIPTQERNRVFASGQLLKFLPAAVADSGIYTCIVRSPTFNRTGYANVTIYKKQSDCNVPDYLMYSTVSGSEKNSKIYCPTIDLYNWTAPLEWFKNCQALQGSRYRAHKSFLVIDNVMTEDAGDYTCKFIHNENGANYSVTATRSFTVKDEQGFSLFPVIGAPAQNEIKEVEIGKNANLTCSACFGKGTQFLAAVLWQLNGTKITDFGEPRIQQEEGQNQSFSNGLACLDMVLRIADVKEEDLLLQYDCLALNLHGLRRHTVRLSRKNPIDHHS
Description: phage display solid-phase panning on recombinant human ST2-his.

In assay [2] the target is T1, 重组人ST2-his (人ST2胞外区, C端His标签). Description: SPR Biacore X100 as in Example 3.4, antibody captured, hST2-his analyte. On the technique in general: Surface plasmon resonance follows binding to a sensor surface in real time, without labels.
The target in assay [3] is T2, 小鼠ST2 (mST2-his) (mouse (mus musculus), UniProt P14719 27-332).
T2 construct: not shown: His tag at C-terminus
T2 sequence: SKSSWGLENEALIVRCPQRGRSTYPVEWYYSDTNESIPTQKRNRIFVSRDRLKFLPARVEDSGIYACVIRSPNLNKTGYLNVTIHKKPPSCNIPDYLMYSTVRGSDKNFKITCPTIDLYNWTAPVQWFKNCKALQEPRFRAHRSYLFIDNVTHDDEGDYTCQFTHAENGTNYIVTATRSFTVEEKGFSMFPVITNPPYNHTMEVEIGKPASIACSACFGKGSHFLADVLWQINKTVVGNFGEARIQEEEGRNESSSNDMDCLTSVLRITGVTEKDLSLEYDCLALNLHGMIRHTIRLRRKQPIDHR
Description: ELISA, mST2-his coated 1 µg/mL, HRP anti-human IgG. In general terms: ELISA stands for enzyme-linked immunosorbent assay.

Assay [4] concerns the target T3, 猕猴ST2 (mmST2-his) (rhesus macaque (Macaca mulatta), UniProt Q01638 19-328 (human entry)).
T3 construct: not shown: His tag at C-terminus
T3 chain: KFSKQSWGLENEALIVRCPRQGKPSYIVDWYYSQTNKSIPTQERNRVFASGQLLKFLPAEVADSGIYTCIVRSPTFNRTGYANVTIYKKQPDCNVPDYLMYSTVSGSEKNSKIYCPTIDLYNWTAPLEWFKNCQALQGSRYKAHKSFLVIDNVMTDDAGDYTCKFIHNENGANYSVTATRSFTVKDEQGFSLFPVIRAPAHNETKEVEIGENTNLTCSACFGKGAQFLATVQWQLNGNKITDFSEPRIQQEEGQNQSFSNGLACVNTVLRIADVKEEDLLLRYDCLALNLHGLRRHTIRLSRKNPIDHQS
The assay can be described thus: ELISA, mmST2-his coated 1 µg/mL, HRP anti-human IgG.

Assay [5] deals with T1, 重组人ST2-his (人ST2胞外区, C端His标签). The assay can be described thus: SPR Biacore X100 as in Example 3.4, antibody captured, hST2-his analyte. This is another data set of the same source.
For assay [6] the target is unchanged. Description: competition ELISA, hST2-his coated, competitor hIL33-mFc 0.5 µg/mL, antibody titrated.
For assay [7] the target is unchanged. Description: SPR Biacore X100, antibody captured by anti-human Fc, hST2-his analyte, 25 °C, 1:1 model.
Assay [8] has as its target T4, ST2L (IL1RL1) on cells (human, UniProt Q01638 19-556).
T4 sequence (looked up): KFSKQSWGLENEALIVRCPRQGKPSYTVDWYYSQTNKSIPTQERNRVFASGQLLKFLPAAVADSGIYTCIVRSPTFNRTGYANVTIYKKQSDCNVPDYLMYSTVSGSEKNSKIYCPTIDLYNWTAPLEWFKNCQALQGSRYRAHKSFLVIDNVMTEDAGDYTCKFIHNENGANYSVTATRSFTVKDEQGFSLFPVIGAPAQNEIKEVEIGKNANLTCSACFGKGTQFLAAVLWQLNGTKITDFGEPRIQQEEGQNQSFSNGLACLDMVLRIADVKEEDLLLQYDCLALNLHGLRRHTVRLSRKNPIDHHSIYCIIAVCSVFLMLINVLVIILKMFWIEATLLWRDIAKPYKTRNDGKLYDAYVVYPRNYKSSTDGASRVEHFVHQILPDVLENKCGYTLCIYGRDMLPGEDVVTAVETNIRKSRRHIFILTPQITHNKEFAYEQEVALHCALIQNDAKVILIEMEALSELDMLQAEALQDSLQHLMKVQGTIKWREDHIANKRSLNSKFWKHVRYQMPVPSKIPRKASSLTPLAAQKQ
Description: cell-based or functional assay.

Assay [9] has as its target T2, 小鼠ST2 (mST2-his). Description: ELISA, mST2-his coated at 1 µg/mL, HRP anti-human IgG detection.

B1: 全人源单链抗体S1A4 (scFv)
scFv: QVQLVQSGAEVKKPGASVKVSCKVSGYTLTELSIHWVRQAPGKGLEWMGGFGPEDGETIYAQKFQGRVTMTEDTSTDTAYMELSSLRSEDTAVYYCINEDSGGLFDFWGQGTTVTVSSGGGGSGGGGSGGGGSDIQLTQSPDSLAVSLGERATINCKSSQSVLYSSNNKNYLAWYQQKPGQPPKLLIYWASTRESGVPDRFSGSGSGTDFTLTISSLQAEDVAVYYCQQYYSTPWTFGQGTKLEIK
notes: also called S1A4 scFv
Turning to B1, the binding result in [1] is “binds”.

B2: S1A4VH+L2G2 (antibody, V domains shown)
VH: QVQLVQSGAEVKKPGASVKVSCKVSGYTLTELSIHWVRQAPGKGLEWMGGFGPEDGETIYAQKFQGRVTMTEDTSTDTAYMELSSLRSEDTAVYYCINEDSGGLFDFWGQGTTVTVSS
VL: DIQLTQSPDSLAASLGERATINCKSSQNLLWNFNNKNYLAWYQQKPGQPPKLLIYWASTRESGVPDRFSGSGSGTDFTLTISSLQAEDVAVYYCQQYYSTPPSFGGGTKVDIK
notes: Full antibody, heavy chain constant region IgG4 subtype
In assay [2], B2 yielded a Kd of 0.0794 nM.

B3: S1A4-IgG4 (antibody, V domains shown)
VH: QVQLVQSGAEVKKPGASVKVSCKVSGYTLTELSIHWVRQAPGKGLEWMGGFGPEDGETIYAQKFQGRVTMTEDTSTDTAYMELSSLRSEDTAVYYCINEDSGGLFDFWGQGTTVTVSS
VL: not shown
notes: Full antibody; also called 抗人ST2单克隆抗体S1A4
On to B3, for which the binding result in assay [3] and in assay [4] was “binds” each time. The Kd in assay [2] turned out to be 0.111 nM; in assay [5], 0.139 nM; in assay [7] it was 0.135 nM. This molecule showed an IC50 in [6] of 4.15 nM.

B4: H5G10+L2G2 (antibody, IgG4, V domains shown)
VH: EVQLVQSGAEVKKPGASVKVSCKVSGYTLTELSIHWVRQAPGKGLEWMGGFGPEDGEAIYAQKVQGRVILSEDTATDTAYMELSSLRSEDTAVYYCTNEDSGGLFDYWGQGTLVTVSS
VL: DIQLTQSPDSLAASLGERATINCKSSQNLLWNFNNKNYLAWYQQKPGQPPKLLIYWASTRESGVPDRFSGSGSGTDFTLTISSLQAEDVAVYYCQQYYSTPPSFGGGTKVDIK
notes: Full antibody, IgG4 heavy constant region
In the case of B4, the “IC50 of inhibition of IFNγ secretion by PBMC co-stimulated with IL-33 and IL-12” value (“IC50 of inhibition of IFNγ secretion” below) in assay [8] was found to be 0.0175 nM. The binding result in assay [9] is recorded as “no binding”. In assay [5], this molecule displayed an equilibrium dissociation constant (Kd) of 0.0852 nM.

B5: S1A4VH+L1D1 (antibody, V domains shown)
VH: QVQLVQSGAEVKKPGASVKVSCKVSGYTLTELSIHWVRQAPGKGLEWMGGFGPEDGETIYAQKFQGRVTMTEDTSTDTAYMELSSLRSEDTAVYYCINEDSGGLFDFWGQGTTVTVSS
VL: DIQLTQSPDSLAVSLGERATINCKSSQSLLYSFNNKNYLAWYQQKPGQPPNLLIYWASTRESGVPDRFSASGSGTDFTLTISSLQAEDVAVYYCQQYYGVPQTFGQGTKVEIK
notes: as for B2
In the case of B5, in assay [2], binding was put at a Kd of 0.152 nM.

B6: H5G3+L2G2 (antibody, IgG4, V domains shown)
VH: QVQLVQSGAEVKKPGASVKVSCKVFGYTLTELSMHWVRQAPGKGLEWMGSFDRGDGKTIYAQKFLGRVTMTEDTSTDTAYMELSSLRSEDTAVYYCTNEDSSGLFDFWGQGTLVTVSS
VL: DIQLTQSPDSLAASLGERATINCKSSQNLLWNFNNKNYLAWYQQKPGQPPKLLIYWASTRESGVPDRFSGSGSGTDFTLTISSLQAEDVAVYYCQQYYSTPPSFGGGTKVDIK
notes: as for B4
Turning to B6, the binding result in assay [3] and in assay [4] was “binds” each time. The molecule also gave a Kd in assay [5] of 0.115 nM.

B7: H5E10+L2G2 (antibody, IgG4, V domains shown)
VH: EVQLVQSGAEVKKPGASVKVSCKVSGYTLTELSIHWVRQAPGKGLEWMGGFDPEDGETIYAQKFQGRITLTEDTSTDTAYMELSSLRSEDTAVYYCTNEDSSGLFDYWGQGTLVTVSS
VL: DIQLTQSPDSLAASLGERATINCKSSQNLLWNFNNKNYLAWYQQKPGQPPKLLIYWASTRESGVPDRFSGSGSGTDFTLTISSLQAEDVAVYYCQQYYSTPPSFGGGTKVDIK
notes: as for B4
Consider B7, for which the binding result in [3] and in [4] was “binds” each time. The molecule also registered a Kd in [5] of 0.709 nM.

B8: H5G3+L1D1 (antibody, IgG4, V domains shown)
VH: QVQLVQSGAEVKKPGASVKVSCKVFGYTLTELSMHWVRQAPGKGLEWMGSFDRGDGKTIYAQKFLGRVTMTEDTSTDTAYMELSSLRSEDTAVYYCTNEDSSGLFDFWGQGTLVTVSS
VL: DIQLTQSPDSLAVSLGERATINCKSSQSLLYSFNNKNYLAWYQQKPGQPPNLLIYWASTRESGVPDRFSASGSGTDFTLTISSLQAEDVAVYYCQQYYGVPQTFGQGTKVEIK
notes: IgG4 heavy constant region
B8: the “IC50 of inhibition of IFNγ secretion” value in assay [8] amounted to 0.038 nM. Further, the binding result in assay [3] and in [4] was “binds” each time.

B9: GSK3772847-IgG4 (antibody, V domains shown)
VH: EVQLLESGGGLVQPGGSLRLSCAASGFTFSIYDMIWVRQAPGKGLEWVSSIRGEGGGTYYADSVKGRFTISRDNSKNTLYLQMNSLRAEDTAVYYCARDPWSTEGSFFVLDYWGQGTLVTVSS
VL: EIVLTQSPATLSLSPGERATLSCRASQSVDDDLAWYQQKPGQAPRLLIYDASNRATGIPARFSGSGSGTDFTLTISSLEPEDFAVYYCQQYITAPLTFGQGTKVEIK
notes: Positive control antibody made after US9382318B2/US9090694B2; also called 抗人ST2对照抗体GSK3772847
Regarding B9, in assay [8], the “IC50 of inhibition of IFNγ secretion” value came to 0.0157 nM. In assay [6], the IC50 came out at 5.52 nM. Besides, binding in assay [7] was put at a Kd of 0.109 nM.

B10: MSTT1041A-IgG4 (antibody, V domains shown)
VH: EVQLVQSGAEVKKPGESLKISCKGSGYSFTNYWIGWVRQMPGKGLEWMGIIYPGNSDTRFSPSFQGQVTISADKSITTAYLQWSSLKASDTAMYYCARHGTSSDYYGLDVWGQGTTVTVSS
VL: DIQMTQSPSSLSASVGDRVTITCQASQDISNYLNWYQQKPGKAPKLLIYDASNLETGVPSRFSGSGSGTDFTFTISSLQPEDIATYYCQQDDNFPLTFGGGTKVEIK
notes: Positive control antibody made after US9382318B2/US9090694B2; also called 抗人ST2对照抗体MSTT1041A
In the case of B10, in assay [8], the “IC50 of inhibition of IFNγ secretion” value was 0.037 nM. Besides, the half-maximal inhibitory concentration (IC50) in [6] stood at 3.79 nM. Further, in [7], the Kd turned out to be 0.24 nM.

B11: H6D6+L2G2 (antibody, IgG4, V domains shown)
VH: QMQLVQSGAEVKKPGSSVKVSCKASGGTFSSYAISWVRQAPGKGLEWMGGFDPEDGETIYAQKFQGRVTMTEDTSTDTAYMELSSLRSEDTAVYYCTTEDSSGLLDFWGQGTLVTVSS
VL: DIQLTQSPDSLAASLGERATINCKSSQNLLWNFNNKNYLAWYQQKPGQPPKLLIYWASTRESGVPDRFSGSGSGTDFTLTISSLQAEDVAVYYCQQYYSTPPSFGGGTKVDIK
notes: as for B4
On to B11, for which the binding result in assay [3] and in assay [4] was “binds” each time. Moreover, in assay [5], binding was characterised by a dissociation constant (Kd) of 0.695 nM.

B12: H6D3+L2G2 (antibody, IgG4, V domains shown)
VH: QVQLVQSGAEVKKPGASVKVSCKVSGHTLTELSIHWVRQTPGKGLVWLGGFESEDGEAIYAQNFQGRVIMTEDTFTDTAYMELSSLRSEDTAVYYCTTEDSSGLIDYWGQGTLVTVSS
VL: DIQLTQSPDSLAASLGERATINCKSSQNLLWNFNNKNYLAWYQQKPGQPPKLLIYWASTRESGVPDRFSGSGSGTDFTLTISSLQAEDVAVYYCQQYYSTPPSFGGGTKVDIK
notes: as for B4
Consider B12, for which the binding result in [3] and in assay [4] was “binds” each time. In addition, the Kd in assay [5] amounted to 0.0373 nM.
